# From the RNAGym collection of RNA variant scans (doi:10.7554/elife.80360)
# B1: CPEB3 Ribozyme (parent)
# chain: GGGGGCCACAGCAGAAGCGUUCACGUCGCGGCCCCUGUCAGAUUCUGGUGAAUCUGCGAAUUCUGCUGU
# Variants of: B1
# Assay: self-cleavage, relative activity (ratio to wild type); higher = more cleavage; co-transcriptional
row,Variant,self-cleavage
1,GGGGGCCACAGCAGAAGCGUUCACGUCGCGGCACCUCUCAGAUUCUGGUGAAUCUGCGAAUUCUGCUGU [C33A G37C],0.265
2,GGGGGCCACAGCAGAAGCGUUCACGUCGCGGCACCUGUCAGAUUCUGGUGAAUCUGCGACUUCUGCUGU [C33A A60C],0.346
3,GGGGGCCACAGCAGAAGCGUUCACGUCGCGGUCCCUGUCAGAUUCUGGUGAAUCUCCGAAUUCUGCUGU [C32U G56C],0.858
4,GGGGGCCACAGCAGAAGCGUUCACGUCGCGGCACCUGUCAGAUUGUGGUGAAUCUGCGAAUUCUGCUGU [C33A C45G],0.665
5,GGGGGCCACAGCAGAAGCGUUCACGUCGCGGCACCUGUCAGAUUAUGGUGAAUCUGCGAAUUCUGCUGU [C33A C45A],0.523
6,GGGGGCCACAGCAGAAGCGUUCACGUCGCGGCACCUGUCAGAUUCUGGUGAAUCUGCGAAUUCUGCUGA [C33A U69A],1
7,GGGGGCCACAGCAGAAGCGUUCACGUCGCGGUCCCUGUCAGAUUCUGGUGAAUCCGCGAAUUCUGCUGU [C32U U55C],0.837
8,GGGGGCCACAGCAGAAGCGUUCACGUCGCGGCACCUGUCAGCUUCUGGUGAAUCUGCGAAUUCUGCUGU [C33A A42C],0.405
9,GGGGGCCACAGCAGAAGCGUUCACGUCGCGGCACCUGUCAGGUUCUGGUGAAUCUGCGAAUUCUGCUGU [C33A A42G],0.685
10,GGGGGCCACAGCAGAAGCGUUCACGUCGCGGCACCUGUCAGUUUCUGGUGAAUCUGCGAAUUCUGCUGU [C33A A42U],0.499
11,GGGGGCCACAGCAGAAGCGUUCACGUCGCGGCACCUGUCAGAUUCUGGUGAAUCUGCGAAUUAUGCUGU [C33A C63A],0.611
12,GGGGGCCACAGCAGAAGCGUUCACGUCGCGGCACCUGUCAGAUUCUGGUGAAUCUGCGAAUUUUGCUGU [C33A C63U],0.851
13,GGGGGCCACAGCAGAAGCGUUCACGUCGCGGCACCUGUCAGAUUCUGGUGAAUCUGCAAAUUCUGCUGU [C33A G58A],0.811
14,GGGGGCCACAGCAGAAGCGUUCACGUCGCGGCACCUGUGAGAUUCUGGUGAAUCUGCGAAUUCUGCUGU [C33A C39G],0.436
15,GGGGGCCACAGCAGAAGCGUUCACGUCGCGGCACCUGUAAGAUUCUGGUGAAUCUGCGAAUUCUGCUGU [C33A C39A],0.286
16,GGGGGCCACAGCAGAAGCGUUCACGUCGCGGCACCUGUUAGAUUCUGGUGAAUCUGCGAAUUCUGCUGU [C33A C39U],0.367
17,GGGGGCCACAGCAGAAGCGUUCACGUCGCGGUCCCUGUCAGAUGCUGGUGAAUCUGCGAAUUCUGCUGU [C32U U44G],0.941
18,GGGGGCCACAGCAGAAGCGUUCACGUCGCGGUCCCUGUCAGAUCCUGGUGAAUCUGCGAAUUCUGCUGU [C32U U44C],0.938
19,GGGGGCCACAGCAGAAGCGUUCACGUCGCGGCAUCUGUCAGAUUCUGGUGAAUCUGCGAAUUCUGCUGU [C33A C34U],0.489
20,GGGGGCCACAGCAGAAGCGUUCACGUCGCGGCGCCUGUCGGAUUCUGGUGAAUCUGCGAAUUCUGCUGU [C33G A40G],0.648

row,Variant,self-cleavage
1,GGGGGCCACAGCAGAAGCGUUCACGUCGCGGCACCUGUCUGAUUCUGGUGAAUCUGCGAAUUCUGCUGU [C33A A40U],0.375
2,GGGGGCCACAGCAGAAGCGUUCACGUCGCGGCACCUGUCCGAUUCUGGUGAAUCUGCGAAUUCUGCUGU [C33A A40C],0.339
3,GGGGGCCACAGCAGAAGCGUUCACGUCGCGGUCCCUGUCAGAUUCUGGUGAAUCUGCGAAUUCUGCUGA [C32U U69A],1.03
4,GGGGGCCACAGCAGAAGCGUUCACGUCGCGGUCCCUGUCAGAUUCUGGUGAAUCUGCGAAUUCUGCGGU [C32U U67G],1.04
5,GGGGGCCACAGCAGAAGCGUUCACGUCGCGGUCCCUGUCAGAUUCUGGUGAAUCUGCGAAUUCUGCCGU [C32U U67C],0.959
6,GGGGGCCACAGCAGAAGCGUUCACGUCGCGGCACCUGUCAGAUUCUGGUGAUUCUGCGAAUUCUGCUGU [C33A A52U],0.454
7,GGGGGCCACAGCAGAAGCGUUCACGUCGCGGCACCUGUCAGAUUCUGGUGAGUCUGCGAAUUCUGCUGU [C33A A52G],0.785
8,GGGGGCCACAGCAGAAGCGUUCACGUCGCGGCACCUGUCAGAUUCUGGUGACUCUGCGAAUUCUGCUGU [C33A A52C],0.582
9,GGGGGCCACAGCAGAAGCGUUCACGUCGCGGCACCUGUCAGAUUCUGGUUAAUCUGCGAAUUCUGCUGU [C33A G50U],0.893
10,GGGGGCCACAGCAGAAGCGUUCACGUCGCGGUCCCUGUCAGAUUCUGGUGAAUCUGCGAAUUCAGCUGU [C32U U64A],0.992
11,GGGGGCCACAGCAGAAGCGUUCACGUCGCGGUCCCUGUCAGAUUCUGGUGAAUCUGCGAAUUCCGCUGU [C32U U64C],0.899
12,GGGGGCCACAGCAGAAGCGUUCACGUCGCGGCGCCUGUCAGGUUCUGGUGAAUCUGCGAAUUCUGCUGU [C33G A42G],0.522
13,GGGGGCCACAGCAGAAGCGUUCACGUCGCGGCGCCUGUCAGCUUCUGGUGAAUCUGCGAAUUCUGCUGU [C33G A42C],0.314
14,GGGGGCCACAGCAGAAGCGUUCACGUCGCGGUCCCUGUCAGAUUCUGGUGAAUCUGCGAAUUCUUCUGU [C32U G65U],0.806
15,GGGGGCCACAGCAGAAGCGUUCACGUCGCGGUCCCUGGCAGAUUCUGGUGAAUCUGCGAAUUCUGCUGU [C32U U38G],0.294
16,GGGGGCCACAGCAGAAGCGUUCACGUCGCGGUCCCUGACAGAUUCUGGUGAAUCUGCGAAUUCUGCUGU [C32U U38A],0.947
17,GGGGGCCACAGCAGAAGCGUUCACGUCGCGGCACCUGUCAGAUUCUGGUGAAUCUGCGAAUUCUUCUGU [C33A G65U],0.451
18,GGGGGCCACAGCAGAAGCGUUCACGUCGCGGCACCUGUCAGAUUCUGGUGAAUCUGCGAAUUCUACUGU [C33A G65A],0.786
19,GGGGGCCACAGCAGAAGCGUUCACGUCGCGGCGUCUGUCAGAUUCUGGUGAAUCUGCGAAUUCUGCUGU [C33G C34U],0.671
